The values that follow come from patent US12006373.

This assay concerns the target human CD3ε expressed on Jurkat T cells (clone E6-1) as part of TCR-CD3 complexes (human) (UniProt P07766). The assay can be described thus: cell-based or functional assay.

Chain of human CD3ε expressed on Jurkat T cells (clone E6-1) as part of TCR-CD3 complexes (human) (P07766 23-207, one chain of several): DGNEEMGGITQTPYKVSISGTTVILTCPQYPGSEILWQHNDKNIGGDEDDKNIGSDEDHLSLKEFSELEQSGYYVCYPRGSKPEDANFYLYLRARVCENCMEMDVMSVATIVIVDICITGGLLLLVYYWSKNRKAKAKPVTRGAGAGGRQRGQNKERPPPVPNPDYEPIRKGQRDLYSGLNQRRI

The substance “biotin anti-human CD3ε (OKT3) antibody coated on M280 streptavidin Dynabeads” yielded an expansion of Jurkat cells during 48 hours of culture (hemocytometer count) of 1.9 times.
